The chains are these.
T1: TPR domain of human AIP, R304Q (disease-associated missense mutation) (human)
T1 sequence (O00170 166-330 with R304Q, looked up): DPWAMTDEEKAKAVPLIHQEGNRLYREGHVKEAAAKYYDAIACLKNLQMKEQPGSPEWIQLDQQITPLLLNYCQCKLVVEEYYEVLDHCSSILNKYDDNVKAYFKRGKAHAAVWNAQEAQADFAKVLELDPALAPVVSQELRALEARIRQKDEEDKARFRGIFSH

T2: TPR domain (residues 166–330) of human AIP (aryl hydrocarbon receptor interacting protein), wild type (human, UniProt O00170 166-330)
T2 construct: Residues Asp 172 to Arg 325 were visible in the TOMM20 peptide structure; also called AIP TPR-domain; WT
T2 sequence (looked up): T1 sequence (O00170 166-330 with R304Q, looked up) with Q139R

B1: AQSLAEDDVE peptide (human TOMM20 C-terminus) (peptide)
peptide: AQSLAEDDVE
notes: extreme C-terminus of human TOMM20; Only AEDDVE was visible in the crystal structure
B2: GSGPTIEEVD peptide (human HSP70 C-terminus) (peptide)
peptide: GSGPTIEEVD
notes: C-terminus of human HSP70; also called HSP70 peptide
B3: EDASRMEEVD peptide (human HSP90β C-terminus) (peptide)
peptide: EDASRMEEVD
notes: extreme C-terminus of human HSP90β; Only SRMEEVD was visible in the crystal structure
B4: MEEVD peptide (HSP90) (peptide)
peptide: MEEVD
notes: extreme C-terminal five residues of HSP90; also called MEEVD (HSP90)
B5: TLEELDW peptide (PDE4A5) (peptide)
peptide: TLEELDW
notes: also called TLEELDW (hPDE4A5); PDE4A5 peptide
B6: DDTSRMEEVD peptide (human HSP90α C-terminus) (peptide)
peptide: DDTSRMEEVD
notes: extreme C-terminus of human HSP90α

Changes are numbered by the printed parent chain. Values joined by “and” are separate entries in the source; they are usually repeats but may differ in a detail not shown here. Equal entries are not always repeated.

One experiment deals with T3, full-length human HSP90β (human, UniProt P08238 1-724).
T3 construct: HSP90β, human, full length; also called FL-hHSP90β; intact HSP90
T3 sequence (P08238 whole entry): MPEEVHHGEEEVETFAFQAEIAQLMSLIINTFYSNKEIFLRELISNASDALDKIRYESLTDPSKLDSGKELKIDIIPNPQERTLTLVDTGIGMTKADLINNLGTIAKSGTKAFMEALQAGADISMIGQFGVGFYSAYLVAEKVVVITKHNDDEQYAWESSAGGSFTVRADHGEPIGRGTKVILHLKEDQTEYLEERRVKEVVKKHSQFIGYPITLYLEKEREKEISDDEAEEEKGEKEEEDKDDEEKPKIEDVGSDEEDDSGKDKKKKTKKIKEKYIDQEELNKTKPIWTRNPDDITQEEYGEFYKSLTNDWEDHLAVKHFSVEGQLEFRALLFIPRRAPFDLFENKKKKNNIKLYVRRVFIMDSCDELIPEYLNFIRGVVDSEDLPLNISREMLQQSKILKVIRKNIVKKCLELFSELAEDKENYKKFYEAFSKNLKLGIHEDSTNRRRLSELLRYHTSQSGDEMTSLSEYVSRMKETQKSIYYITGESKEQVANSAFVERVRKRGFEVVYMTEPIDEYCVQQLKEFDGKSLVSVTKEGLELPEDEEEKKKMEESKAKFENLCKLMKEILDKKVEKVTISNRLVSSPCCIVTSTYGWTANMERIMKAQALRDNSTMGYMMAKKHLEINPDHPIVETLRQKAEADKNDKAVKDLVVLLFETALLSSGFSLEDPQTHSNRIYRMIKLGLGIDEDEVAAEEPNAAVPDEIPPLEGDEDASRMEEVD
The experiment can be described thus: ITC; twenty 1.9 µL aliquots of AIP TPR-domain at 350 µM injected into 30 µM human HSP90β; 20 mM Tris pH 7.5, 5 mM NaCl, 30°C.
Settings: not given
A general note: In ITC the heat of successive injections is recorded.
On to “TPR domain of human AIP, E192R mutant (domain or fragment)”, for which the Kd (in general, the equilibrium constant for the complex coming apart) was found to be 11.1 µM; the dH is -4.11 kcal/mol; the stoichiometry N (usually a count of units in the complex or per binding partner) stood at 0.47.

Another experiment concerns the target TPR domain of human AIP, R304A mutant (human). Nature of the experiment: ITC; twenty 1.9 µL aliquots of peptide (350 to 600 µM) injected into 30 µM AIP TPR-domain; 20 mM Tris pH 7.5, 5 mM NaCl, 30°C.
Settings: not given
Regarding B1, the Kd was determined as 16.6 µM, the dH was -4.51 kcal/mol and the stoichiometry N came out at 0.69.
Molecule B2 registered a Kd of 22.8 µM, a dH of -5.46 kcal/mol and a stoichiometry N of 0.66.
For B3 the same measures were 15.6 µM, -6.44 kcal/mol and 0.96.

In the next experiment the target is T1, TPR domain of human AIP, R304Q (disease-associated missense mutation) (human). The experiment is described as above.
Settings: not given
Consider B1, for which the Kd is 22.5 µM, the dH is -6.07 kcal/mol and the stoichiometry N is 0.66.
For B2 the same measures were 31.1 µM, -5.5 kcal/mol and 0.84.
In the same order, the values of B3 are 16.2 µM, -6.42 kcal/mol and 0.98.

The target in a further experiment is T2, TPR domain (residues 166–330) of human …. Described as above. The note with it: both partners purified.
For the molecule B4, the Kd came out at 12.6 ± 1.6 µM, the dH was -4.14 kcal/mol and the “stoichiometry N” value turned out to be 1.
Regarding B1, the Kd was 12.3 ± 0.5 µM, the dH is -6.77 kcal/mol and the “stoichiometry N” value came out at 0.87.
In the same order, the values of B2 are 18.1 ± 1.9 µM, -6.35 kcal/mol and 0.63.
On to B5, for which the affinity, expressed as Kd, was 64.5 ± 3.2 µM; the dH was -4.42 kcal/mol; the “stoichiometry N” value turned out to be 0.89.
For B3, the Kd was 18.6 µM and 14.4 µM; the dH is -5.04 kcal/mol and -3.92 kcal/mol; the “stoichiometry N” value was 1.2 and 1.1.
As for B6, the Kd came to 9.5 ± 0.6 µM, the dH was -3.53 kcal/mol and the “stoichiometry N” value stood at 1.2.

Values taken from publication PMC3534021, “Structure of the TPR Domain of AIP: Lack of Client Protein Interaction with the C-Terminal α-7 Helix of the TPR Domain of AIP Is Sufficient for Pituitary Adenoma Predisposition” (PLoS ONE, 2012).
